Results: article PMC7693302

Biological target: S2 domain of SARS-CoV-2 S protein (from S protein with FLAG at both N- and C-termini) (SARS-CoV-2)
Test: co-sedimentation

In the case of “S1 domain of S^G614 (from S protein with FLAG at both N- and C-termini) (domain or fragment)”, the fold S1:S2 ratio against PV^D614 is reported as 3.5 fold.
